Results reported in patent US20170081417A1 (Kyowa Kirin, published 2017).
Where a chain is given by its changes, count along the chain named. Values belong to the binder of their own block, whether it stands above or below them. No end group written: not given here.

Legend:
[1] = molecular target: T1, human OX40 (CD134), full length, expressed on cells (activated human T cells); EL4-OX40 and CHO-OX40 … (human, UniProt P43489 29-277); assay: cell-based or functional assay
T1 sequence: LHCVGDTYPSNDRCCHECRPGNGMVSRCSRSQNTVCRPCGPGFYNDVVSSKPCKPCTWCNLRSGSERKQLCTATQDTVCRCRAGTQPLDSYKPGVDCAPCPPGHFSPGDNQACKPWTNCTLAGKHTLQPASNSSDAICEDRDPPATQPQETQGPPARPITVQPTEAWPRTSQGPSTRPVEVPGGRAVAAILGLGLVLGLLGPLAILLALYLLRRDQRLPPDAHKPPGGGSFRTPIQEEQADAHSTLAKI

human OX40 peptide 112A = molecular target: T2, human OX40 peptide 112A (human, also: conjugated to KLH via maleimide linker); assay: ELISA on coated KLH-conjugated peptide
T2 peptide: RPAGPGFYNDVVSSKPC
Method: (§1) Antibody titers, specificity, and production by hybridomas were determined by ELISA. In brief, 96 well flat bottom plates were coated with 50 μl of hOX40:hFc at 5 μg/ml in carbonate buffer (pH 9.4) overnight at 4° C. or at 37° C. for one hour. After washing twice with PBS/0.1% Tween 20, plates were blocked with PBS/1% BSA/0.1% Tween20 at 37° C. for one hour. The serum, supernatant, or purified antibody was diluted in blocking buffer, added to the wells, and the plates were incubated for one hour at 37° C. The plates were washed four times with PBS/0.1% Tween 20 and the peroxidase conjugated sheep anti-human kappa detection antibody (The Binding Site, Birmigham, UK) was added at a dilution of 1:2000. Following one hour incubation at 37° C., the plates were washed and the TMB (Sigma) substrate was added and incubated at room temperature for ten to thirty minutes. The reaction was stopped with H₂SO₄ (LabChem) and the optical density was measured at 450 nm by a microplate reader.
(§2) The peptides were generated by A & A Lab, LLC and conjugated to keyhole limpet hemocyanin (“KLH”) with a maleimide linker following the manufacturer's instructions (Pierce). The peptides were coated at 10 μg/ml in carbonate buffer to 96 well Maxisorp ELISA plates (Nunc) at 4° C. overnight. The plate was washed with PBS/0.1% Tween 20 and then blocked with Casein buffer (Pierce) for three hours at room temperature. Candidate antibodies were added at 10 μg/ml diluted in 10% Casein in PBS/0.1% Tween 20. The remainder of the ELISA was performed as described for the OX40 specific antibody detection ELISA.

human OX40 peptide 112B = molecular target: T3, human OX40 peptide 112B (human, also: conjugated to KLH via maleimide linker); assay: ELISA on coated KLH-conjugated peptide
T3 peptide: RAGTQPLDSYKPGVDC
Method: as §1, §2

human OX40 peptide 112C = molecular target: T4, human OX40 peptide 112C (human, also: conjugated to KLH via maleimide linker); assay: ELISA on coated KLH-conjugated peptide
T4 peptide: LAGKHTLQPASNSSDAIC
Method: as §1, §2

[2] = molecular target: T5, human OX40 extracellular domain fused to the Fc portion of human IgG1 (hOX40:hFc) (human); assay: ELISA, OX40L-FLAG binding to coated hOX40:hFc, anti-FLAG-HRP
T5 construct: Made in Tn5 insect cells; also called OX40-hIgG1; human OX40:hIgG1 fusion protein
Method: (§3) The ability of 112F32, 112V8, 112Y131, 112Y55, and 112Z5 to block soluble hOX40L binding to coated hOX40:hFc fusion protein was tested using an ELISA protocol (FIG. 5A, Table 3). The plates were coated with hOX40:hFc and after blocking non-specific sites the anti-OX40 antibodies were allowed to bind. Without washing OX40L-FLAG was added to the wells. Bound ligand was detected with anti-FLAG-HRP secondary antibody. Percent inhibition was determined using the following formula (100−(OD sample/OD maximum OX40L binding))*100. 112V8, 112Y55, and 112Y131 prevented 85% of the binding of soluble OX40L to hOX40:hFc. 112F32 prevented approximately 70% of the binding of soluble hOX40L to hOX40:hFc and 112Z5 blocked 67% of the maximal binding.

[3] = molecular target: T5, human OX40 extracellular domain fused …; assay: ELISA, blocking of OX40L-FLAG binding to coated hOX40:hFc
Method: as §3

[4] = molecular target: T1, human OX40 (CD134), full length, …; assay: flow cytometry, blocking of OX40L-FLAG binding to activated human T cells
Description: The activated T cells were also stained with mouse anti-human OX40 antibody L106 (Becton Dickinson), which was directly conjugated to phycoerythrin or whose binding was detected with anti-mouse IgG-PE (Southern Biotechnology Associates.) OX40L Blocking Assays: To determine if the anti-human OX40 antibodies could block OX40L binding to soluble OX40 both ELISA and flow cytometric protocols were used. In the ELISA 96 well Nunc flat bottom plates were coated with recombinant soluble hOX40:hFc at 2 μg/ml in carbonate buffer (pH9.4) for one hour at 37° C. The plates were washed with PBS/0.1% Tween 20 and Superblock (Pierce) was added to the wells to block non-specific binding. The test antibodies were diluted to 1 μg/ml in PBS/Tween and added to the plates. After one hour incubation at 37° C., FLAG tagged recombinant soluble human OX40L (Alexis Biochemicals, San Diego, Calif.) was added to the appropriate wells without washing out the anti-OX40 antibodies. Following one hour incubation, the plates were washed and an anti-FLAG-peroxidase conjugated antibody (Sigma) was added to the wells for one hour at 37° C. The TMB substrate was added, after ten minutes the reaction was stopped with H₂SO₄, and the results were read at 450 nm using a microplate reader. In the flow cytometric assay, human CD4+ T cells were purified and activated with PHA+IL2 for two days. The cells were washed and resuspended in staining buffer and then incubated with increasing amounts of human anti-human OX40 antibodies for twenty minutes on ice, from 0.005-50 μg/ml. Soluble recombinant OX40L-FLAG was then added to the cells. The cells were washed and incubated with anti-FLAG conjugated to PE (Sigma). After another wash, the cells were fixed with 1% paraformaldehyde and analyzed on a FACScan or FACScalibur.
Slightly different results were obtained when a flow cytometric based assay was used to monitor blockade of soluble OX40L binding to activated human T cells that express OX40 (FIG. 5B). Activated human T cells were labeled with anti-OX40 antibodies followed by soluble flag tagged-human OX40L. Binding of OX40L was detected with anti-FLAG-PE antibody. Percent inhibition was determined using the same formula, i.e., (100−(sample/maximum binding))*100.

T5 sequence (chain, as listed by the source limits assumed): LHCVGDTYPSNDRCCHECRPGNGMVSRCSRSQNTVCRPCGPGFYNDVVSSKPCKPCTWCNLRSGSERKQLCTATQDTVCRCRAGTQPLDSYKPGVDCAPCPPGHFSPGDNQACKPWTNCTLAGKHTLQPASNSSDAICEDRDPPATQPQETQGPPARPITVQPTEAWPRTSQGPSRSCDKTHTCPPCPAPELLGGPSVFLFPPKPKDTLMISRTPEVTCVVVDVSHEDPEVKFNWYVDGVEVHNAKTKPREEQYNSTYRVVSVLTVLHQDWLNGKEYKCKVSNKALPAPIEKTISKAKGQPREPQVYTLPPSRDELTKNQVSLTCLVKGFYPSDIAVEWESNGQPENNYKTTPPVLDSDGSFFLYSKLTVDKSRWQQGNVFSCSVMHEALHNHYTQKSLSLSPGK

ADCC % Lysis at 10 µg/ml [1]: 54.2% | binding result (human OX40 peptide 112A): no binding (tested: 10 µg/ml) | binding result (human OX40 peptide 112B): no binding (tested: 10 µg/ml) | binding result (human OX40 peptide 112C): no binding (tested: 10 µg/ml) | percent inhibition of OX40L binding [2]: 85% | IC50 [3]: 0.073 µg/mL | IC50 [4]: 0.9 µg/mL
B1: 112Y55 human anti-human OX40 monoclonal antibody (hybridoma ATCC No. PTA-7220) (antibody, V domains shown)
VH: QITLKESGPTLVKPTQTLTLSCTFSGFSLSTSGVGVGWIRQPPGKALEWLALIHWDDAERYSPSLKSRLTITKDTSKNQVVLTMTNMDLVDTATYYCAHTRGAFDIWGQGTMVTVSS
VL: EIVLTQSPGTLSLSPGERAILSCRASQSVSSSFLAWYQQKPGQAPRLLIYGAFSRATGIPDRFSGSGSGTDFTLTISRLEPEDFAVYYCQQYDSSRTFGQGTKVEIK

ADCC % Lysis at 10 µg/ml [1]: 18% | binding result (human OX40 peptide 112A): no binding (tested: 10 µg/ml) | binding result (human OX40 peptide 112B): no binding (tested: 10 µg/ml) | binding result (human OX40 peptide 112C): no binding (tested: 10 µg/ml) | percent inhibition of OX40L binding [2]: 85% | IC50 [3]: 0.069 µg/mL | IC50 [4]: 0.91 µg/mL
B2: 112Y131 human anti-human OX40 monoclonal antibody (hybridoma ATCC No. PTA-7218) (antibody, V domains shown)
VH: B1 VH with S21T, H54Y, A58H, E59S, R60P, L89P, H99R
VL: EIVLTQSPATLSLSPGERATLSCRASQGVSSYLAWYQQKPGQAPRLLIYDASNRATGIPARFSGSGPGTDFTLTISSLEPEDFAVYYCQQRSNWHPTFGQGTKVEIK
